# Target: biotinylated human DLL3 protein expressed as a human IgG1 fusion protein (human) (UniProt Q9NYJ7)
# Experiment: Octet BLI; biotinylated huDLL3-IgG1 fusion on streptavidin tips; single 50 nM; conditioned medium
# Sequence of biotinylated human DLL3 protein expressed as a human IgG1 fusion protein (human) (Q9NYJ7 other isoform, or with tags, fused parts or gaps): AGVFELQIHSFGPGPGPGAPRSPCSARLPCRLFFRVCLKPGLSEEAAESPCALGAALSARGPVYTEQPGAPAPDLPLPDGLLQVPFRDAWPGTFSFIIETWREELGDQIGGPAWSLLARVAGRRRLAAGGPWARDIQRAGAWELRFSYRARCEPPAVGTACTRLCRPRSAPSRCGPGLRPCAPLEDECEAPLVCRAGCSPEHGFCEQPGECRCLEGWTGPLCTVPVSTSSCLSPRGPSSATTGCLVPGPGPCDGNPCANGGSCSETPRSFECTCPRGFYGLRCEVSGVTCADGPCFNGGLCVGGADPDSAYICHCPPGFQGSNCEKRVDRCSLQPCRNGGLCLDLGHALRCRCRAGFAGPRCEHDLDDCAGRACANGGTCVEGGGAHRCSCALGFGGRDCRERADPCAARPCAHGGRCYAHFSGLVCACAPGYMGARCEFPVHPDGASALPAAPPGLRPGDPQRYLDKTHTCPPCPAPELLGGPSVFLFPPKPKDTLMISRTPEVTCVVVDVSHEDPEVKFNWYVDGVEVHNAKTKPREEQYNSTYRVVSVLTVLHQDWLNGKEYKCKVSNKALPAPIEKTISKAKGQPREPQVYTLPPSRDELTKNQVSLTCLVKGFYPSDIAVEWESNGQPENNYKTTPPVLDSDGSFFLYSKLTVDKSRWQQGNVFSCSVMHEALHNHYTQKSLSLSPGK
row,Binder,Kd
1,"anti-DLL3 trispecific protein 3A09 (protein, part only; not given: CD3 binder and albumin binder, part only) chain, part: EVQLVESGGGLVQPGGSLTLSCAASGSSVSFLSMAWYRQAPGKKRELVAGISADGSVDYIDSVKGRFTISRDNAKNSVYLQMNSLRAEDTAVYYCYAYRWTTRYIYWGQGTLVTVSSGGGGSGGGSGGGGSGGGSHHHHHH",6.3 nM
2,"anti-DLL3 trispecific protein 4D05 (protein, part only; not given: anti-CD3 fragment and anti-albumin domain, part only) chain, part: EVQLVESGGGLVQPGGSLTLSCAASGSSSSFLSMAWYRQAPGKKRELVAGISADGSTVYIDSVKGRFTISRDNAKNSVYLQMNSLRAEDTAVYYCYAYRWTTRRTYWGQGTLVTVSSGGGGSGGGSGGGGSGGGSHHHHHH",6.5 nM
3,"anti-DLL3 trispecific protein 2C09 (protein, part only; not given: anti-CD3 and anti-albumin domains, part only) chain, part: EVQLVESGGGLVQPGGSLTLSCVPSGSTSNINAMGWYRRAPGKQRELPAGISSDGTKIYADSAKVPFTITRDNAKNSVYLQMNSLRAEDTAVYYCYYFRTVSGTSMRYWGQGTLVTVSSGGGGSGGGSGGGGSGGGSHHHHHH",6.4 nM
4,"anti-DLL3 trispecific protein 2H010 (protein, part only; not given: CD3 fragment and albumin sdAb, part only) chain, part: EVQLVESGGGLVQPGGSLTLSCVASGSTSSINAMGWYRRAPGKQRELAAGISSDGSKLYADSVKGRFTISRDNAKNSVYLQMNSLRAEDTAVYYCYYFRTVSGSSMRYWGQGTLVTVSSGGGGSGGGSGGGGSGGGSHHHHHH",6.4 nM
5,"anti-DLL3 trispecific protein 1A010 (protein, part only; not given: anti-CD3 fragment and anti-albumin domain, part only) chain, part: EVQLVESGGGLVQPGGSLTLSCVASGSTSSINAYGWYRRAPGKQRELVAGISSDGSKVYADSVKGRFTISRDNAKNSVYLQMNSLRAEDTAVYYCYYFRTVYGSSMRYWGQGTLVTVSSGGGGSGGGSGGGGSGGGSHHHHHH",6.5 nM
6,"anti-DLL3 trispecific protein 2H04 (protein, part only; not given: anti-CD3 fragment and anti-albumin domain, part only) chain, part: EVQLVESGGGLVQPGGSLTLSCVASGSTSSINAMGWYRRAPGKQRELVAGISSDTSKVYADSVKGRFTISRDNAKNSVYLQMNSLRAEDTAVYYCYYFRTVSGSYMRYWGQGTLVTVSSGGGGSGGGSGGGGSGGGSHHHHHH",6.3 nM
7,"anti-DLL3 trispecific protein 1A03 (protein, part only; not given: CD3 fragment and albumin sdAb, part only) chain, part: EVQLVESGGGLVQPGGSLTLSCVASGSTSSINAMAWYRRAPGKQRELVAGISSDGSKVYADSVKGRFTISRDNAKNSVYLQMNSLRAEDTAVYYCYYFRTVSGSSSRYWGQGTLVTVSSGGGGSGGGSGGGGSGGGSHHHHHH",6.3 nM

# Continued by falling Kd, values first:
row,Kd,Binder
1,6.5 nM,"anti-DLL3 trispecific protein 2F09 (protein, part only; not given: anti-CD3 fragment and anti-albumin domain, part only) chain, part: EVQLVESGGGLVQPGGSLTLSCVASGSTSSINAMAWYRRAPGKQRELVAGISSDGSKLYADSVKGRFTISRDNAKNSVYLQMNSLRAEDTAVYYCYYFRTVSGSSMRYWGQGTLVTVSSGGGGSGGGSGGGGSGGGSHHHHHH"
2,6.5 nM,"anti-DLL3 trispecific protein 2G07 (protein, part only; not given: anti-CD3 and anti-albumin domains, part only) chain, part: EVQLVESGGGLVQPGGSLTLSCVASGSTSSINAMAWYRRAPGKQRELVAGISSDGSKVYADSVKGRFTISRDNAKNSVYLQMNSLRAEDTAVYYCYYFRTVQGSSMRYWGQGTLVTVSSGGGGSGGGSGGGGSGGGSHHHHHH"
3,6.3 nM,"anti-DLL3 trispecific protein 1F010 (protein, part only; not given: anti-CD3 fragment and anti-albumin sdAb, part only) chain, part: EVQLVESGGGLVQPGGSLTLSCVASGSTSRINAMGWYRRAPGKQRELVAGISSDGSKVYKDSVKGRFTISRDNAKNSVYLQMNSLRAEDTAVYYCYYFRTVSGSSMRYWGQGTLVTVSSGGGGSGGGSGGGGSGGGSHHHHHH"
4,6.2 nM,"anti-DLL3 trispecific protein 1H07 (protein, part only; not given: anti-CD3 fragment and anti-albumin sdAb, part only) chain, part: EVQLVESGGGLVQPGGSLTLSCVASGSTSSINAFGWYRRAPGKQRELVAGISSDGSKVYSDSVKGRFTISRDNAKNSVYLQMNSLRAEDTAVYYCYYFRTVSGSSMRYWGQGTLVTVSSGGGGSGGGSGGGGSGGGSHHHHHH"
5,6.2 nM,"anti-DLL3 trispecific protein 2D04 (protein, part only; not given: CD3 binder and albumin binder, part only) chain, part: EVQLVESGGGLVQPGGSLTLSCVASGSTSSINAVGWYRRAPGKQRELVAGISSDGSKVYRDSVKGRFTISRDNAKNSVYLQMNSLRAEDTAVYYCYYFRTVQGSSMRYWGQGTLVTVSSGGGGSGGGSGGGGSGGGSHHHHHH"

# Reference: patent US20200095340A1
